# Measurements reported in the supplement of paper PMC12042874.
# ± gives the uncertainty stated by the source.
# Assay: amyloid nucleation score (Sup35N fusion, yeast selection) (log enrichment); library NNK2; higher = more nucleation; inactive = no reads after selection
# Outline: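 Plasmid inserts were Illumina-sequenced at input and output from psi-negative yeast expressing Sup35N fused to peptides of 20 random codons. The yeast were induced with 100 μM copper sulfate for 24 hours and grown 7 days at 30°C on medium lacking adenine and uracil, and sequences with under 100 input reads were excluded. Nucleation score is the DiMSum log enrichment of output over input reads, centred on the mode score of non-aggregating sequences.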
row,Substance,amyloid nucleation score
1,PRSNCLHCFLLPLSNIVLCA,4.66 ± 0.049
2,LVSFKGKVLFFIS,1.86 ± 0.13
3,NVLGQNAQPPNMDFYVTMIC,0.508 ± 0.56
4,RCYGVRTHGNLKQIMTKMTE,0.602 ± 0.24
5,SRQRVMLLC,inactive
6,TLFQLFIYLTFKVQVVAGTT,3.92 ± 0.083
7,RRSTWSISLS,-0.916 ± 0.45
8,LCDMI,0.544 ± 0.29
9,PNSGFSGNCIKVIQHNLQG,inactive
10,YTMASLS,1.74 ± 0.13
11,VLEGIYLLMKVCLIYPRSYD,-1.8 ± 1.1
12,YFKMSFCSFWL,1.91 ± 0.091
13,CKVHVQVNTESYTGIVMTYY,4.65 ± 0.039
14,NCIRSNDRMMFPLCVTLSCS,0.335 ± 0.39
15,LNVITSVTLRVDWRAVWRKY,0.134 ± 0.53
16,HRLFSY,-0.776 ± 0.63
17,YHNCNQHSWYRMRCFG,-0.417 ± 1.1
18,PFFVV,-0.791 ± 1.1
19,RVDYSMREFCLSSRAREDTV,-0.353 ± 0.42
20,TRAHSED,0.49 ± 0.32
21,FQNITVYSFRATGVTGQRSC,-0.447 ± 0.5
22,PCRRYRVLFWGGSLVSSMGK,3.3 ± 0.07
23,NFDSYVYNVASVFYVVGLGV,5.321 ± 0.048
24,HLNWHLFILGLFGSATGEDI,-1.48 ± 1.1
25,NKVEALLWTKTTLQCSLRSV,4.82 ± 0.059

row,Substance,amyloid nucleation score
1,FVLCLDLHDESQERWETIRR,0.925 ± 0.67
2,TYKFLSVFIDEFGQDFIMIW,-1.11 ± 0.43
3,LFPLHFCNEHIMRLIKKLTG,0.579 ± 0.8
4,FNIRSFICV,inactive
5,LFSTTRFVAHKAGR,0.47 ± 0.33
6,GMKSIDVL,-1.21 ± 0.36
7,LMASCHKQRTCRWHPRDRRY,0.298 ± 0.46
8,TPNIGSSRVVMLSLQLLN,6.955 ± 0.054
9,ICACKSY,5.28 ± 0.076
10,RCGKCGLYS,0.067 ± 0.5
11,RLENMCMASPR,0.464 ± 0.46
12,FMLSVPNVDRFVRRMLGTPE,1.05 ± 0.42
13,EADELGLLVSIKCRAARRCW,5.743 ± 0.052
14,VLIFMIKVWARITLMGYSRL,-0.666 ± 0.3
15,LFIRINWDFSNLWGTFGITV,0.553 ± 0.2
16,QNGAALRLIGIWGNGGCK,-0.003 ± 1.1
17,NLDEQGFAVSWETVLLWSEE,-0.005 ± 0.5
18,HKLLCGYTQSQHQRIGFQEF,-0.733 ± 1.1
19,FYIIRD,-0.866 ± 0.76
20,YCMASLSSLNLVRHWDDESS,-1.01 ± 1.1
21,GIIDLIYCNAEEHSHWGDFA,-1.17 ± 0.62
22,RLLSTCMILMMASRTCYVYN,0.69 ± 0.52
23,NDSVRTVGCIQYMMRIASVF,0.783 ± 0.57
24,VIYLVLGKTRLNIELSVLST,1.16 ± 0.45
25,NMGLFGGILVFVMWLIMCSL,2.31 ± 0.15

row,Substance,amyloid nucleation score
1,GRPAAHAPSHPTRSVLGMS,0.763 ± 0.47
2,SSVVISRVPTARICSEEKGP,inactive
3,DCLLGNSSPAV,-0.594 ± 1.1
4,EDFYAYFLIRRCVACAIIFL,3.02 ± 0.15
5,RVNEMWIQI,-0.138 ± 0.76
6,TLFSVCSIHEQWPGEVMVSY,0.918 ± 0.47
7,KLGDWARRPCSSGPARTYGR,0.843 ± 0.19
8,ILELDMLLCKKVTHL,4.3 ± 0.089
9,NSDRL,-0.794 ± 0.45
10,CAPFVRDFINMVCRRMPNTN,0.566 ± 0.66
11,RFWLNCCWRTCSTTFLNWMK,0.472 ± 0.6
12,IYRKSICYSFVWALFEVAEW,-0.398 ± 0.35
13,WWKQWRYTGYLLLSHLSNRS,-0.087 ± 0.42
14,LAFGHVSVS,0.086 ± 0.55
15,LFGSVHGLTCVLSGLYCVQH,10.32 ± 0.04
16,FWSIMWLVCPGAMWCNT,1.84 ± 0.28
17,TLYVVYLDEICYLLFKVSYC,1.2 ± 0.66
18,SSGTCTSHSLVLIHMGLRYV,-0.54 ± 0.54
19,LYWKSGEHIWYLGSILGCVG,0.593 ± 0.56
20,ASNAFRSGYWQGERHERMRL,1.07 ± 0.14
21,TLLNAYNNTLVWIWFVSMPV,5.46 ± 0.081
22,GFWFLGCPLYYLVAIFKWII,inactive
23,SCYLALKFTFRLFVLKSEGL,-0.202 ± 1
24,HGVMKISTCYFGGKESYYVE,-0.206 ± 0.76
25,FIRNYWSVYGRWSANIFDDL,0.48 ± 0.45

row,Substance,amyloid nucleation score
1,NQVFSIALAQNRSRHFFLGG,inactive
2,PVALLAIRMNIDVVN,-0.353 ± 0.49
3,SSAGC,-1.23 ± 0.55
4,YAPRCNPNRNLLNMT,4.47 ± 0.058
5,DCQMRDNASVNIIVRFQYVY,5.08 ± 0.082
6,SNLMISTCEQMGRCVGDDAV,-0.067 ± 0.36
7,AYIDVTWWPFVFLDQVMYTT,0.089 ± 0.48
8,PWNLLGWLRRS,0.108 ± 0.23
9,DRTDVCWSSGHDHLDLCWMS,0.273 ± 0.25
10,CMNTISVLSECASTRQTC,-0.068 ± 0.31
11,TEMWFDGRNSRMIQAH,0.081 ± 0.36
12,ARECNY,3.78 ± 0.063
13,LWSRVVVWQDRYVV,inactive
14,RFSLYNLIIEVSAVVEFLWT,inactive
15,HVGLKSLHTMASWFMFDHNI,inactive
16,SFDTCRSLIRLYHVPPRTVL,-0.276 ± 0.61
17,RRYMVMSDWLDKPWWGYFGV,-0.855 ± 0.24
18,FVNIFIIHADYVGHRPAELR,9.092 ± 0.081
19,KGGWNKGEPMFFLVMCMYVN,4.8 ± 0.054
20,VHLLGDFGLASQRRNECKLL,0.477 ± 0.28
21,GIMSNLGQSPRVRSHSRRQQ,0.747 ± 0.51
22,NFIVIALRGTDNTYSLSGLS,6.407 ± 0.043
23,SWNSV,-0.442 ± 0.41
24,AAPGCFNLKFLS,-0.36 ± 0.74
25,CYMCWFNIILLQKFKRQGVL,4.29 ± 0.063

row,Substance,amyloid nucleation score
1,HYMDSNIVLNSAKSRRKDAW,0.132 ± 0.24
2,LSHLISVVRRVRKYSYGEVV,0.389 ± 0.64
3,SHCCFLG,0.118 ± 0.51
4,FRWGFVSPDRSIGDVFLQLC,-0.137 ± 1.1
5,FGSIFNSYVNEWRSLLCNID,-1.67 ± 0.39
6,CGMISLSSNVMSFALPFLYY,0.824 ± 0.15
7,ATVRFWWKFVYACGMAWWWV,0.001 ± 0.55
8,RGADIAVRNFFDYQRRRWCN,0.222 ± 0.44
9,ICKGRCVASGWV,1.61 ± 0.14
10,GIWWQHNGFEYDFGNLSC,-0.165 ± 0.35
11,YNRGMQLIAVVL,0.725 ± 0.39
12,SLAQDVRGYGLCNGKTNIVW,-0.867 ± 0.35
13,ELVGYNVVGAIGSQ,-0.022 ± 0.26
14,MFERW,-0.184 ± 0.56
15,FRNTWFCFLLKLLTS,-0.818 ± 0.42
16,LFGHLVLYYPFSSTINCVVV,5.59 ± 0.056
17,PNRTFLLKVGA,-1.1 ± 1.1
18,LGGGHKMDLFCYMISIWYYM,2.77 ± 0.18
19,LNMRT,-0.443 ± 0.64
20,YCKGSS,-0.46 ± 1
21,NKRMRVRVEGRLINV,0.089 ± 0.42
22,YSSNGPGEKWRYR,2.04 ± 0.09
23,STCLTLSMRLLA,3.84 ± 0.078
24,DLRLTSHIRSFIFAGVPVLF,-1.65 ± 0.49
25,ETGCLRARAVATGVLGRREK,0.171 ± 0.65

row,Substance,amyloid nucleation score
1,FIHRDGYSFDQVGFMGACF,0.092 ± 1.1
2,RYRHLTFLVFCIAVPVGFWR,2.04 ± 0.14
3,ICGVSFTGAIYARGGRLRIR,0.145 ± 0.63
4,CFWWNPGSILIRWCLKVLPG,-1.59 ± 0.54
5,MVVSFGRLGGNLRRNLKVRI,0.214 ± 0.65
6,KWNQKKNRSCFKAQRWCKLP,-0.637 ± 1.1
7,VFGVLPIIGYPVRVLCVRFI,-0.43 ± 1.1
8,IRMVDTCRVLKLSGEPFSRD,-0.993 ± 0.78
9,AKVRLYVRGGSLLIGIRSVV,0.555 ± 0.22
10,TIRFS,-1.58 ± 0.37
11,ACFHGFPIYGCLLANAMCGR,1.33 ± 0.67
12,LFVIGLLSGVSICVYCRSWS,3.41 ± 0.11
13,RWCSSYRYIHSGGRNASGSF,-0.108 ± 0.8
14,FCCTLAIFSL,7.594 ± 0.024
15,VYRMPGVSWKYVS,0.501 ± 0.8
16,AERIFSQ,-1.45 ± 0.62
17,VSSNSVWSIY,-1.01 ± 0.44
18,RFPVGRLFWQEFRYSDQGVA,1.17 ± 0.23
19,FFTCFTYCDCHNPVMI,3.28 ± 0.12
20,LDYSNFNTRKFAKDEGDMRR,8.371 ± 0.049
21,LRDKCAPCKCSRGSPLTSIC,-0.489 ± 0.63
22,SIFHGWARWKGFG,-0.258 ± 0.48
23,PGYVAWRIFFFGPVI,0.007 ± 1.1
24,VIWHWVAGH,5.71 ± 0.087
25,CYSVFSLY,-0.81 ± 1

row,Substance,amyloid nucleation score
1,RGVYKHSPHLIT,-0.127 ± 1.1
2,TQWSFGGYQRVGGLVVHAKR,3.03 ± 0.17
3,FWRAFMLHWGNFLLMRALHE,inactive
4,EGEITFGTFPYSEFVFECST,inactive
5,YFNSSVLILVVWLLY,inactive
6,HGSFAIMP,-0.529 ± 0.45
7,PLLVLVNFLSGKSPQAHCSH,3.07 ± 0.077
8,EGMLGIHRAGFLDGRGKLGL,inactive
9,EWRKPGFVRGLRLNCVLRYF,-1.51 ± 0.78
10,DSFIIASRL,1.69 ± 0.1
11,KCDLMRWSHFQ,1.24 ± 0.48
12,VRFFYSFVPT,inactive
13,IRFRVLVPNLGKASDRFQVP,-0.19 ± 0.53
14,LCRCNATRGGCCLFLGCFWL,2.73 ± 0.09
15,KERRSSVLVKNRVCSNGYF,inactive
16,HAVWSVFCEFIVRQCYGLYF,-1.37 ± 0.41
17,QYDSSFT,-0.165 ± 0.55
18,FWRKVCVDDRTT,-0.121 ± 0.43
19,MRWGY,-0.393 ± 1
20,VVYASRLC,0.681 ± 0.35
21,FDSPYPMPMSHSVNSSLIIW,-0.155 ± 0.3
22,TEPSGTGKTRGSQRTLHRYV,-0.323 ± 0.79
23,RHGMNGRLTFLASTYSASRL,0.349 ± 0.22
